Laboratory results taken from patent US20240052042A1 (Novartis, published 2024).

What was measured:
[1] = molecular target: T1, rNPR1-ANP complex (rat, UniProt P01160 124-151 (human entry), limits assumed); assay: Octet, FabCys
T1 construct: rNPR1 antigen in the presence of ANP; also called rNPR1 + 100 nM ANP
T1 sequence: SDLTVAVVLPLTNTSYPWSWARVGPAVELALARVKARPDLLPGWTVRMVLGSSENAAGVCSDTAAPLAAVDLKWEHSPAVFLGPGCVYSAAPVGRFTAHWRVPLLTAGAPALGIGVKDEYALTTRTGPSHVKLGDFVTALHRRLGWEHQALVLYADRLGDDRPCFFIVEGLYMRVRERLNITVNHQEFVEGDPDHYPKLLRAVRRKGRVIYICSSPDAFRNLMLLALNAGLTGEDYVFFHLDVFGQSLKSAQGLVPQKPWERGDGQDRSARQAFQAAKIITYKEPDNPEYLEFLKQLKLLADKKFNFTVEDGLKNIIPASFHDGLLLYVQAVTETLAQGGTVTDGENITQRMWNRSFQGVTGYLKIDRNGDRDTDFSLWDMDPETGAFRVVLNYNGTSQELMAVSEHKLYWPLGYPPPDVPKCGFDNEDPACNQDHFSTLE
T1 sequence (peptide): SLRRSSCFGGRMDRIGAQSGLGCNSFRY

[2] = molecular target: T2, hNPR1-ANP complex (human, UniProt P01160 124-151, limits assumed); assay: Octet, FabCys
T2 construct: hNPR1 antigen in the presence of ANP; also called hNPR1 + 100 nM ANP
T2 sequence: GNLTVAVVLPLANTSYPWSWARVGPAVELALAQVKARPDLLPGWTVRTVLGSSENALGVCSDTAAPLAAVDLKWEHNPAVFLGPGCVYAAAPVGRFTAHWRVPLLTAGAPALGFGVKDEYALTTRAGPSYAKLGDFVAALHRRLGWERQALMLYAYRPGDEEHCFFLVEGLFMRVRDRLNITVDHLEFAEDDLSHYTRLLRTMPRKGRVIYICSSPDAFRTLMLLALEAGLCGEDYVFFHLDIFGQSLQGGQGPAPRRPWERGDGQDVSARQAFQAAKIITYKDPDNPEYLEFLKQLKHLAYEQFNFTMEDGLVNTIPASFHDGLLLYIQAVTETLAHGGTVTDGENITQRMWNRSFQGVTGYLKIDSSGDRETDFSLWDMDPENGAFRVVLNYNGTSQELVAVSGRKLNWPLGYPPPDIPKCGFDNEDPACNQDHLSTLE
T2 sequence (peptide): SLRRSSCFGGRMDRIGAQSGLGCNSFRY

[3] = molecular target: T1, rNPR1-ANP complex; assay: SET, FabCys
[4] = molecular target: T3, human Natriuretic Peptide Receptor 1 (hNPR1) (human, UniProt P16066 33-473, limits assumed); assay: SET, FabCys
T3 construct: pannings used NPR1-hFc; also called NPR1-hFc
T3 sequence: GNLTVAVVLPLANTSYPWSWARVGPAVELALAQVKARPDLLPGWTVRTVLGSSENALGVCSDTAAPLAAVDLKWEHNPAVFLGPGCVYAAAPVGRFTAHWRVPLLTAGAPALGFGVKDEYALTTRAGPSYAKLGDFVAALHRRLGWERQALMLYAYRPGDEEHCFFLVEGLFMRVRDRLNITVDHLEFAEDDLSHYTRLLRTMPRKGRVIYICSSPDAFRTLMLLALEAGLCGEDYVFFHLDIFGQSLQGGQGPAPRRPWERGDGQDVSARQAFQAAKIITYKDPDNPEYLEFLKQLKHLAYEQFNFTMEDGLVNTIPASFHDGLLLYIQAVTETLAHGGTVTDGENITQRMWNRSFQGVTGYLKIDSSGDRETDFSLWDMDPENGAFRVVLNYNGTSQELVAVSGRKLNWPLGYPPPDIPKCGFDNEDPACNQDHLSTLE

[5] = molecular target: T4, rat NPR1 (rNPR1) (rat, UniProt P18910 29-469, limits assumed); assay: SET, FabCys
T4 construct: Soluble antigen
T4 sequence: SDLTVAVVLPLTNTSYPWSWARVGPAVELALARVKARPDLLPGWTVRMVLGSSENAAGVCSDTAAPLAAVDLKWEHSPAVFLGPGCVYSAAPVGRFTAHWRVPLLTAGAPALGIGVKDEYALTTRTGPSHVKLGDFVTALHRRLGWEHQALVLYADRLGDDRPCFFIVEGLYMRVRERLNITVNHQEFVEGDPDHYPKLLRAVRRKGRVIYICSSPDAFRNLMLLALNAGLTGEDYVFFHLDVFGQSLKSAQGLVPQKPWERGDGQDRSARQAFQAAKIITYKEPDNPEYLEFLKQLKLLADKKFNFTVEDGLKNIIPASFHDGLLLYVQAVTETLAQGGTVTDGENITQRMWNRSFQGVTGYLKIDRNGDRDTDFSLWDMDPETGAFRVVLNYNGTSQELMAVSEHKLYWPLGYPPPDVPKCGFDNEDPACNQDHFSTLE

[6] = molecular target: T2, hNPR1-ANP complex; assay: SET, FabCys

- Kd [1]: 0.1 nM
- Kd [2]: 0.04 nM
- Kd [3]: 1.4 nM
- Kd [4]: 6.7 nM
- Kd [5]: 2.1 nM
- Kd [6]: 0.32 nM
B1: ZZ12 (FabCys format) (Fab, V domains shown)
VH: EVQLVESGGGLVQPGGSLRLSCAASGFSFSKYYLNWVRQAPGKGLEWVASIHQQAHEKKYVESVKGRFTISRDNAKNSLYLQMNSLRAEDTAVYYCARSLRRRSTEHAGFDVWGQGTLVTVSS
VL: DIQMTQSPSSLSASVGDRVTITCRASQGISNYLAWYQQKPGKVPKLLIYAASTLQSGVPSRFSGSGSGTDFTLTISSLQPEDVATYYCQQADKFPYTFGQGTKVEIK
notes: Monovalent FabCys
